In publication PMC2958812, “Evidence for a Xer/dif System for Chromosome Resolution in Archaea”:

T1: XerA (Pab0255) (Pyrococcus abyssi, UniProt Q9V1P5 1-286)
T1 sequence: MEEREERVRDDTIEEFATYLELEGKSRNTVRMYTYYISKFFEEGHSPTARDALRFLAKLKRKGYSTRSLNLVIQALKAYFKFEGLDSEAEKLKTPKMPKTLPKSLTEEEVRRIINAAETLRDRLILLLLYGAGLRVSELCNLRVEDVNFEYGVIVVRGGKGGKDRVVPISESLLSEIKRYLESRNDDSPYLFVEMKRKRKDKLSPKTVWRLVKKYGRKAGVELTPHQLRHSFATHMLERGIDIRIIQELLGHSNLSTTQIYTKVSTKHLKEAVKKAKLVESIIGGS

B1: attP (SSV1 minimal) (dsDNA)
DNA 1: GTTAACTATCTTTTCCGCCTCCGGAGCCGGAGGTCCCGTGTTG
DNA 2: CAACACGGGACCTCCGGCTCCGGAGGCGGAAAAGATAGTTAAC
B2: dif-Pab (dsDNA)
DNA 1: GTTAACTATATTGGATATAATCGGCCTTATATCTAAAGTGTTG
DNA 2: CAACACTTTAGATATAAGGCCGATTATATCCAATATAGTTAAC

What was measured:
XerA (Pab0255) [1] = biological target: T1, XerA (Pab0255); assay: EMSA; 20 C; 0.5 ug poly(dIdC); EMSA: 0.5 uM labeled DNA, 50 mM Tris pH 7.5, 30 mM NaCl, 0.5 ug poly(dIdC).poly(dIdC), 20 ul, 30 min at 20 or 65 C; native PAGE in TGE at 4 C; settings: protein: recombinant; tags: N-terminal His6 (MHHHHHH, from forward primer); label: 5'-32P on top strand; blunt
XerA (Pab0255) [2] = biological target: T1, XerA (Pab0255); assay: EMSA; 65 C; 0.5 ug poly(dIdC); EMSA: 0.5 uM labeled DNA, 50 mM Tris pH 7.5, 30 mM NaCl, 0.5 ug poly(dIdC).poly(dIdC), 20 ul, 30 min at 20 or 65 C; native PAGE in TGE at 4 C; settings: protein: recombinant; tags: N-terminal His6 (MHHHHHH, from forward primer); label: 5'-32P on top strand; blunt

Binder	binding signal (XerA (Pab0255) [1])	binding signal (XerA (Pab0255) [2])
B1	0.25 complex formation relative to dif-Pab (4 fold less)	0.125 complex formation relative to dif-Pab (8 fold less)
B2	4 fold complex formation vs attP	8 fold complex formation vs attP
